What was measured:
Assay in all cases: cell-based or functional assay
[1] = molecular target: KDM1A (human, UniProt O60341 1-852)
[2] = molecular target: T1, KDM4C (human, UniProt Q9H3R0 1-1056)
T1 sequence (looked up): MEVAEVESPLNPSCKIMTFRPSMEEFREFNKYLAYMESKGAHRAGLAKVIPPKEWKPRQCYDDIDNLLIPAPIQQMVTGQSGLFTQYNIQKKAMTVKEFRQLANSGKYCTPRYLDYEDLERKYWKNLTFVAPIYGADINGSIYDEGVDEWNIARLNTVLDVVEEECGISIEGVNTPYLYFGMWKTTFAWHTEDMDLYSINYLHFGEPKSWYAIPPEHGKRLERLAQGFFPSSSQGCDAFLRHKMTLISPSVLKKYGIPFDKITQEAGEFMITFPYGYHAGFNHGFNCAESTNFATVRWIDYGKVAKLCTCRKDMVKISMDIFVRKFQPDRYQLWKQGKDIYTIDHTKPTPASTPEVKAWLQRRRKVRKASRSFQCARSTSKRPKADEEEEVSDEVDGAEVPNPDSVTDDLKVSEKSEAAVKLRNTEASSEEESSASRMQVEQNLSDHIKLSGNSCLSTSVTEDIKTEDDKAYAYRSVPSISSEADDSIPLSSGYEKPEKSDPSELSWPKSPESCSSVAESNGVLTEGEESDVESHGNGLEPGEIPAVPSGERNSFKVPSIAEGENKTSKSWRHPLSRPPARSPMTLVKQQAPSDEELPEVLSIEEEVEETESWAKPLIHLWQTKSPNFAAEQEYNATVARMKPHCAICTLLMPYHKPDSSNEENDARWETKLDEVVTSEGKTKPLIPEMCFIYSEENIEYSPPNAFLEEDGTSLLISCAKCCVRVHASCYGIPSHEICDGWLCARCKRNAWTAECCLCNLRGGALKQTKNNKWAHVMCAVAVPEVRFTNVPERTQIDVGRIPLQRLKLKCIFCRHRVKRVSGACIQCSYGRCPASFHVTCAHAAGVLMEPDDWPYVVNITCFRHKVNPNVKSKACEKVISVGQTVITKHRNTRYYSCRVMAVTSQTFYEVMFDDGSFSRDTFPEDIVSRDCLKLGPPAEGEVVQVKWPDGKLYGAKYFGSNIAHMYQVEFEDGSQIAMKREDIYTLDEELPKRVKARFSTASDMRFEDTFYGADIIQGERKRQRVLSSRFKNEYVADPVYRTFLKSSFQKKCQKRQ

[3] = molecular target: T2, N-terminally Hexa-His-tagged KDM4A (residues 1–359) (human, UniProt O75164 1-359)
T2 sequence (looked up): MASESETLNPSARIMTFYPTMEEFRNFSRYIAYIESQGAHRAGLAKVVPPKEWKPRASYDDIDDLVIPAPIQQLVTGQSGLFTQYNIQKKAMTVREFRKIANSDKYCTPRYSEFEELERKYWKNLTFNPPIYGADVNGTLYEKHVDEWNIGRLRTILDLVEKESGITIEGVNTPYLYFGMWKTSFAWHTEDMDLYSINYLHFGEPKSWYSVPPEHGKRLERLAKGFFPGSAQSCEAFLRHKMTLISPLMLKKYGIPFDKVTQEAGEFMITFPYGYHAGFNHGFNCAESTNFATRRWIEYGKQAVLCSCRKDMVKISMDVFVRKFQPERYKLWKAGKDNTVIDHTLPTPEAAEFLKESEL

[4] = molecular target: T3, KDM4B (human, UniProt O94953 1-1096)
T3 sequence (looked up): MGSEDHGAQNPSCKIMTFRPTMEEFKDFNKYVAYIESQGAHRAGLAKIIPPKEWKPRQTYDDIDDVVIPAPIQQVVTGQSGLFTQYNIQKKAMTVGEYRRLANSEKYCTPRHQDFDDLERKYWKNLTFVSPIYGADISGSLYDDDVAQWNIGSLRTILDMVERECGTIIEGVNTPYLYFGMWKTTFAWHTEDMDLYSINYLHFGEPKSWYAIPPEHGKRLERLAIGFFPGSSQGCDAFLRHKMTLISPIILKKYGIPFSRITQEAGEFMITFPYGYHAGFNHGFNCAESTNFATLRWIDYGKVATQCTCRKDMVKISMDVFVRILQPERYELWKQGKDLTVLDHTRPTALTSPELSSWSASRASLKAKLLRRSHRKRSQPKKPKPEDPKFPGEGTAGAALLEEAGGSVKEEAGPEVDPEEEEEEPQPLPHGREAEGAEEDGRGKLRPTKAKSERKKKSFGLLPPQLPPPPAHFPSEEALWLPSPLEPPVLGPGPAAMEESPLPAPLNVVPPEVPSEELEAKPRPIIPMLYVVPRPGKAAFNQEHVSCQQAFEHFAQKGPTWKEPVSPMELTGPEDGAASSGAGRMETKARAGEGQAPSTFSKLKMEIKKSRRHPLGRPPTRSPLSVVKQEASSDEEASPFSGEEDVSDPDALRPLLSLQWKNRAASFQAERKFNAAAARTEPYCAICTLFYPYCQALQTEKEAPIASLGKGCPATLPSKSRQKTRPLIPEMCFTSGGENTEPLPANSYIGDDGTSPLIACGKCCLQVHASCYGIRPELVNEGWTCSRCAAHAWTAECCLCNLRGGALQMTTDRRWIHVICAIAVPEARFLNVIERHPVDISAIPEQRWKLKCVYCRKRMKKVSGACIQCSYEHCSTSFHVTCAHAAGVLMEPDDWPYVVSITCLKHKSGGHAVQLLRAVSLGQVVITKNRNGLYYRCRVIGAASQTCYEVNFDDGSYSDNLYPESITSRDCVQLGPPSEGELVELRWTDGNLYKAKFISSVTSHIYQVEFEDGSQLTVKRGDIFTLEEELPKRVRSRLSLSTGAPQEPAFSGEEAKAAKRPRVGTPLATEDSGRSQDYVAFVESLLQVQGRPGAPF

[5] = molecular target: KDM5C (human, UniProt P41229 1-1560)
[6] = molecular target: factor inhibiting HIF (UniProt Q9NWT6 1-349)
[7] = molecular target: prolyl hydroxylase domain 2 (UniProt Q9GZT9 1-426)
prolyl hydroxylase domain 2, sequence (Q9GZT9 whole entry, the tested form may be a part): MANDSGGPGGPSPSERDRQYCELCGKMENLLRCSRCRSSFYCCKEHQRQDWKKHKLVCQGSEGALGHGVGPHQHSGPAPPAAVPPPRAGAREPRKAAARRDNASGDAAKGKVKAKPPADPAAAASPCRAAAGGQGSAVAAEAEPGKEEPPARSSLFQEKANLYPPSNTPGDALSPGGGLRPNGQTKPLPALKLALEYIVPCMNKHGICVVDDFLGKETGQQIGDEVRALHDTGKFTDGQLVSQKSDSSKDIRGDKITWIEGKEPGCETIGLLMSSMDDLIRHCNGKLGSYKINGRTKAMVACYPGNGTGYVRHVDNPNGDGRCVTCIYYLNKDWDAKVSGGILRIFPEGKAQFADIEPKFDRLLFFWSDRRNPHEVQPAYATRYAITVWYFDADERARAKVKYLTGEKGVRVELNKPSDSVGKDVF

factor inhibiting HIF, sequence (Q9NWT6 whole entry, the tested form may be a part): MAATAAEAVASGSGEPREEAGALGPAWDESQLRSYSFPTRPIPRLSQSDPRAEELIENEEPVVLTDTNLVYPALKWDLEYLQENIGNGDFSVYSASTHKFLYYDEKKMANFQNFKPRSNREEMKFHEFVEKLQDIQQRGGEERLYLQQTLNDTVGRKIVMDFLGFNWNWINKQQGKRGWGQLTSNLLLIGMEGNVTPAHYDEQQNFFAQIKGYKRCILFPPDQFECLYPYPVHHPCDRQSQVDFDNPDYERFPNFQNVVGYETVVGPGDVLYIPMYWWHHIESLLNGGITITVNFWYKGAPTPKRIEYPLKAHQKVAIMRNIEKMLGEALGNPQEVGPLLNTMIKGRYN
KDM5C, sequence (P41229 whole entry): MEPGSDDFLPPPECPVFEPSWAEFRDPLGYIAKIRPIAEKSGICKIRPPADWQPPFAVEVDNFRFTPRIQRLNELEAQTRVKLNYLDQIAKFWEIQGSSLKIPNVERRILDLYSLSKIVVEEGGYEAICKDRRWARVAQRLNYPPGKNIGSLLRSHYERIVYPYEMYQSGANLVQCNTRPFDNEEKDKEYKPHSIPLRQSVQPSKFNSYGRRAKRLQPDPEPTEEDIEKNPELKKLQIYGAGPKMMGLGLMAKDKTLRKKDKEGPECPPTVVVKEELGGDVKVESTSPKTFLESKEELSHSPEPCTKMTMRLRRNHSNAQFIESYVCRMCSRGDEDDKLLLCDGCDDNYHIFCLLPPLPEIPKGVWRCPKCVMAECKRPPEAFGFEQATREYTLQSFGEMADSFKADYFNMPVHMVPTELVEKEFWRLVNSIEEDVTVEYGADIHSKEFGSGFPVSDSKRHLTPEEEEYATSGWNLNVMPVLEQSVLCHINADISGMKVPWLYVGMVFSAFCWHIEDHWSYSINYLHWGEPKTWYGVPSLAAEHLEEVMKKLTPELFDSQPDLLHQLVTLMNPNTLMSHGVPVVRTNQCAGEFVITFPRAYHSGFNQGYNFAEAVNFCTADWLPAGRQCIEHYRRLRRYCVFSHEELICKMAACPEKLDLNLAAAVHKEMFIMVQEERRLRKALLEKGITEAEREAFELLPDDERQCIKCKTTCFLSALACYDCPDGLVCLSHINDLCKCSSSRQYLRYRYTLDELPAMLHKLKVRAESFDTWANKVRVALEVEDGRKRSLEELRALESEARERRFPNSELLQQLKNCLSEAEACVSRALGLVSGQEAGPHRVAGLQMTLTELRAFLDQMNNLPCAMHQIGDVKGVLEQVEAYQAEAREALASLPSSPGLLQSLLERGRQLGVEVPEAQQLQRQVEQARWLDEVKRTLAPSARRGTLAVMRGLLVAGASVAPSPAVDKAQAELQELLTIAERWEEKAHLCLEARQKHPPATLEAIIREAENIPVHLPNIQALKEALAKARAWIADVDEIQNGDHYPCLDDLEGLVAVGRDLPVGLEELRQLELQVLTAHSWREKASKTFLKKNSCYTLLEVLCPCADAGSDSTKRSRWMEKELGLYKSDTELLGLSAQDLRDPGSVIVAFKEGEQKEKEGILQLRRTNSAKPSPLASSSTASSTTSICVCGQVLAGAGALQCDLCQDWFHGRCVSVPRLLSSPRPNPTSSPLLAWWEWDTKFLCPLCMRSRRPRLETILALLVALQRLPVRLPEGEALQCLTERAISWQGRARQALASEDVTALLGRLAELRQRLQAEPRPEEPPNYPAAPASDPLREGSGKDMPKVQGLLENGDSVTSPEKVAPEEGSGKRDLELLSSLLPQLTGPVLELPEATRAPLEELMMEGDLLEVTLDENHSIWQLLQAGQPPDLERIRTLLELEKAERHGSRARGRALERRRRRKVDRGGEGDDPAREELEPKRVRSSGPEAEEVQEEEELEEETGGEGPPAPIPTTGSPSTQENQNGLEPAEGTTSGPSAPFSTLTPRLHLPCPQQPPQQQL

IC50 of inhibition of KDM1A/LSD1 (fluorescence-based assay) [1]: > 10 µM
IC50 of inhibition of demethylase activity (AlphaScreen activity assay) [2]: 0.017 µM
IC50 of inhibition of demethylase activity (AlphaScreen activity assay) [3]: 0.02 µM
IC50 of inhibition of demethylase activity (AlphaScreen activity assay) [4]: 0.006 µM
IC50 of inhibition of demethylase activity (AlphaScreen activity assay) [5]: > 10 µM
IC50 of inhibition of FIH (MALDI–TOF MS assay) [6]: > 1000 µM
IC50 of inhibition of PHD2 (MALDI–TOF MS assay) [7]: > 1000 µM
B1: CP4 (peptide)
chain: YLKSRRSGLTWIPC
modifications: not fully specified; N-terminal L-Tyr (^LTyr library, N-chloroacetyl-L-Tyr) cyclised by a thioether to a downstream cysteine
